{
  "source": "paper doi:10.1101/2025.10.21.683800",
  "about": "(bioRxiv, 2025)",
  "binders": {"B1": {"name": "recombinant PPP1R2 (natural protein)", "chain": "MAASTASHRPIKGILKNKTSTTSSMVASAEQPRGNVDEELSKKSQKWDEMNILATYHPADKDYGLMKIDEPSTPYHSMMGDDEDACSDTEATEAMAPDILARKLAAAEGLEPKYRIQEQESSGEEDSDLSPEEREKKRQFEMKRKLHYNEGLNIKLARQLISKDLHDDDEDEEMLETADGESMNTEESNQGSTPSDQQQNKLRSS"}},
  "key": {"[1]": {"target": "T1, MBP-FLAG-PPP1CC-His (human, UniProt P36873 1-323)", "T1 sequence (P36873 whole entry)": "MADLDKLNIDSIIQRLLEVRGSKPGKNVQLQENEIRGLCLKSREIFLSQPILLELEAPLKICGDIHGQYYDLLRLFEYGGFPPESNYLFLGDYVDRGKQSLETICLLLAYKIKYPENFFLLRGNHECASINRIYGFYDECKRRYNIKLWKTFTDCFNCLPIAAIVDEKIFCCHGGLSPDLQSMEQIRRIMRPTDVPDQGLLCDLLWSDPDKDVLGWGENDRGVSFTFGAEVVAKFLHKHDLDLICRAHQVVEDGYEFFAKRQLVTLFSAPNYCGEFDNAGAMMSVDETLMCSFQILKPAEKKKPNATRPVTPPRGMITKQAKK", "test": "ITC"}, "[2]": {"target": "T1, MBP-FLAG-PPP1CC-His", "test": "ITC", "remark": "listed apart in the source"}},
  "note": "Read-outs that look alike come from different tables or passages of the source.",
  "data": [
    {"binder": "B1", "values": [
      {"measurement": "Kd", "setting": "[1]", "result": 3590, "unit": "nM"},
      {"measurement": "Kd", "setting": "[2]", "result": 1130, "unit": "nM"}
    ]}
  ]
}
